Data as given in publication PMC12416549 (2024).

T1: TNFR1 (Homo sapiens, UniProt P19438)
T1 chain: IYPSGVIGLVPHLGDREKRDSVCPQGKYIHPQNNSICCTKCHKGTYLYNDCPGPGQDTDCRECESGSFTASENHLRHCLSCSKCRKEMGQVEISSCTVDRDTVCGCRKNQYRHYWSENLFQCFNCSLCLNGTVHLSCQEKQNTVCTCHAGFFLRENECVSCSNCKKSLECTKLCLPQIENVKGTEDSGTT


Target: T1, TNFR1
Assay: yeast display SC50

Binder | apparent Kd (screen) [nM]
E25A (designed binder) MTLQELLREEALRRAEAEAFRYALALLAEKFPEQKEYLLDLAEEIESQIRSLSGVDVEDVRKFLDKEWAWVKELLAEHPAELAEVEAARAARLAELRAEVEAKVAA | 0.405
E44A (designed binder) MTLQELLREEALRRAEAEAFRYALELLAEKFPEQKEYLLDLAEAIESQIRSLSGVDVEDVRKFLDKEWAWVKELLAEHPAELAEVEAARAARLAELRAEVEAKVAA | 7.78
L24F (designed binder) MTLQELLREEALRRAEAEAFRYAFELLAEKFPEQKEYLLDLAEEIESQIRSLSGVDVEDVRKFLDKEWAWVKELLAEHPAELAEVEAARAARLAELRAEVEAKVAA | 0.653
E84F (designed binder) MTLQELLREEALRRAEAEAFRYALELLAEKFPEQKEYLLDLAEEIESQIRSLSGVDVEDVRKFLDKEWAWVKELLAEHPAELAFVEAARAARLAELRAEVEAKVAA | 0.593
T2Q (designed binder) MQLQELLREEALRRAEAEAFRYALELLAEKFPEQKEYLLDLAEEIESQIRSLSGVDVEDVRKFLDKEWAWVKELLAEHPAELAEVEAARAARLAELRAEVEAKVAA | 1.27
V71I (designed binder) MTLQELLREEALRRAEAEAFRYALELLAEKFPEQKEYLLDLAEEIESQIRSLSGVDVEDVRKFLDKEWAWIKELLAEHPAELAEVEAARAARLAELRAEVEAKVAA | 0.539
V100I (designed binder) MTLQELLREEALRRAEAEAFRYALELLAEKFPEQKEYLLDLAEEIESQIRSLSGVDVEDVRKFLDKEWAWVKELLAEHPAELAEVEAARAARLAELRAEIEAKVAA | 0.653
S53H (designed binder) MTLQELLREEALRRAEAEAFRYALELLAEKFPEQKEYLLDLAEEIESQIRSLHGVDVEDVRKFLDKEWAWVKELLAEHPAELAEVEAARAARLAELRAEVEAKVAA | 0.653
Q48S (designed binder) MTLQELLREEALRRAEAEAFRYALELLAEKFPEQKEYLLDLAEEIESSIRSLSGVDVEDVRKFLDKEWAWVKELLAEHPAELAEVEAARAARLAELRAEVEAKVAA | 0.593
L24P (designed binder) MTLQELLREEALRRAEAEAFRYAPELLAEKFPEQKEYLLDLAEEIESQIRSLSGVDVEDVRKFLDKEWAWVKELLAEHPAELAEVEAARAARLAELRAEVEAKVAA | 26.9
L64G (designed binder) MTLQELLREEALRRAEAEAFRYALELLAEKFPEQKEYLLDLAEEIESQIRSLSGVDVEDVRKFGDKEWAWVKELLAEHPAELAEVEAARAARLAELRAEVEAKVAA | 1.69
V55Y (designed binder) MTLQELLREEALRRAEAEAFRYALELLAEKFPEQKEYLLDLAEEIESQIRSLSGYDVEDVRKFLDKEWAWVKELLAEHPAELAEVEAARAARLAELRAEVEAKVAA | 0.956
R89N (designed binder) MTLQELLREEALRRAEAEAFRYALELLAEKFPEQKEYLLDLAEEIESQIRSLSGVDVEDVRKFLDKEWAWVKELLAEHPAELAEVEAANAARLAELRAEVEAKVAA | 1.05
L52A (designed binder) MTLQELLREEALRRAEAEAFRYALELLAEKFPEQKEYLLDLAEEIESQIRSASGVDVEDVRKFLDKEWAWVKELLAEHPAELAEVEAARAARLAELRAEVEAKVAA | 0.446
R89Q (designed binder) MTLQELLREEALRRAEAEAFRYALELLAEKFPEQKEYLLDLAEEIESQIRSLSGVDVEDVRKFLDKEWAWVKELLAEHPAELAEVEAAQAARLAELRAEVEAKVAA | 0.593
H78S (designed binder) MTLQELLREEALRRAEAEAFRYALELLAEKFPEQKEYLLDLAEEIESQIRSLSGVDVEDVRKFLDKEWAWVKELLAESPAELAEVEAARAARLAELRAEVEAKVAA | 0.79
K103W (designed binder) MTLQELLREEALRRAEAEAFRYALELLAEKFPEQKEYLLDLAEEIESQIRSLSGVDVEDVRKFLDKEWAWVKELLAEHPAELAEVEAARAARLAELRAEVEAWVAA | 0.718
A94V (designed binder) MTLQELLREEALRRAEAEAFRYALELLAEKFPEQKEYLLDLAEEIESQIRSLSGVDVEDVRKFLDKEWAWVKELLAEHPAELAEVEAARAARLVELRAEVEAKVAA | 0.539
S53Y (designed binder) MTLQELLREEALRRAEAEAFRYALELLAEKFPEQKEYLLDLAEEIESQIRSLYGVDVEDVRKFLDKEWAWVKELLAEHPAELAEVEAARAARLAELRAEVEAKVAA | 6.43
L74D (designed binder) MTLQELLREEALRRAEAEAFRYALELLAEKFPEQKEYLLDLAEEIESQIRSLSGVDVEDVRKFLDKEWAWVKEDLAEHPAELAEVEAARAARLAELRAEVEAKVAA | 3
A106Y (designed binder) MTLQELLREEALRRAEAEAFRYALELLAEKFPEQKEYLLDLAEEIESQIRSLSGVDVEDVRKFLDKEWAWVKELLAEHPAELAEVEAARAARLAELRAEVEAKVAY | 0.79
A69E (designed binder) MTLQELLREEALRRAEAEAFRYALELLAEKFPEQKEYLLDLAEEIESQIRSLSGVDVEDVRKFLDKEWEWVKELLAEHPAELAEVEAARAARLAELRAEVEAKVAA | 0.956
V60Y (designed binder) MTLQELLREEALRRAEAEAFRYALELLAEKFPEQKEYLLDLAEEIESQIRSLSGVDVEDYRKFLDKEWAWVKELLAEHPAELAEVEAARAARLAELRAEVEAKVAA | 0.539
R8C (designed binder) MTLQELLCEEALRRAEAEAFRYALELLAEKFPEQKEYLLDLAEEIESQIRSLSGVDVEDVRKFLDKEWAWVKELLAEHPAELAEVEAARAARLAELRAEVEAKVAA | 0.593
L74P (designed binder) MTLQELLREEALRRAEAEAFRYALELLAEKFPEQKEYLLDLAEEIESQIRSLSGVDVEDVRKFLDKEWAWVKEPLAEHPAELAEVEAARAARLAELRAEVEAKVAA | 13.8
